Test results published in patent US6030602A, “Peptide conjugates for transfecting cells” (Hoffmann-La Roche Inc., priority 1996, dated 2000).

Legend:
Format in all cases: cell-based
[1] = tested on: suspension cell-line WEHI 231.7; assay: Transfection with luciferase plasmid, compound of Example 1b or cationic lipids (Table 4); conditions: for Luciferase activity: WEHI 231.7, 6 well plates, 2 μg DNA per well, 48 h, background subtracted, DOTAP/DOSPER at cationic lipid/DNA 5/1 (wt/wt)
Procedure: a) 1.0 mg of the compound obtained in Example 1b) was dissolved in trifluoroethanol and dried in vacuo. The film was then rehydrated with 1 ml of 10 mM Tris maleate buffer pH 6.
b) 10 μl of a plasmid DNA solution (1 mg/ml) were diluted with 190 μl of pure, sterile water. 100 μl of the product obtained in paragraph a) were added and gently mixed. The mixture was then added to cells.
Table 4: Transfection of various cell lines with the compound of Example 1b or cationic lipids. Cells grown in 6 well plates were transfected with a luciferase encoding plasmid (2 μg DNA per well) formulated as described earlier in this Example. Luciferase activity was measured 48 h later. Results are expressed as light units per mg of cell protein. Background was substracted from each measurement.
*)DOTAP (Avanti Polar Lipids Inc.) or DOSPER (BoehringerMannheim)
transfection complexes were prepared according to manufacturer's
instructions and were used at a cationic lipid/DNA ratio of 5/1 (wt/wt).

[2] = tested on: 293-EBNA; assay: Transfection with luciferase plasmid, compound of Example 1b/DOPE or cationic lipids (Table 2); conditions: 48 h after transfection, Example 1b mixed with DOPE per Example 2, DOTAP, Lipofectamine per manufacturer
Procedure: (§1) a) 1.1 mg of the compound obtained in Example 1b) were solubilized in trifluoroethanol and mixed with 1.1 mg of dioleoylphosphatidyl-ethanolamine (DOPE) in chloroform. The mixture was dried in vacuo and the remaining film rehydrated with 1 ml of 30 mM Tris Cl buffer pH 8.5. […]
(§2) b) Plasmid DNA (10 μg) was diluted in 400 μl of 30 mM Tris Cl buffer pH 8.5. Then […] of the product obtain in paragraph a) were added and gently mixed. The mixture was then added to cells.
(§3) |Transfection of various cell lines with a mixture of the | compound of Example 1b and DOPE or cationic lipids. Cells were | transfected with a luciferase encoding plasmid formulated as described | earlier in this Example. Luciferase activity was measured 48 h after | transfection. Results are expressed as μ Units per well, | ^2) DOTAP and Lipofectamine transfection complexes were prepared
(§4) according to the manufacturer's instructions.

[3] = tested on: C2E12; assay: as above; conditions: 48 h after transfection, Example 1b mixed with DOPE per Example 2, DOTAP, Lipofectamine per manufacturer
Procedure: as §1, §2, §3, §4

[4] = tested on: CHO K1; assay: as above; conditions: 48 h after transfection, Example 1b mixed with DOPE per Example 2, DOTAP, Lipofectamine per manufacturer
Procedure: as §1, §2, §3, §4

[5] = tested on: HeLa; assay: as above; conditions: 48 h after transfection, Example 1b mixed with DOPE per Example 2, DOTAP, Lipofectamine per manufacturer
Procedure: as §1, §2, §3, §4

[6] = tested on: LM tk-; assay: as above; conditions: 48 h after transfection, Example 1b mixed with DOPE per Example 2, DOTAP, Lipofectamine per manufacturer
Procedure: as §1, §2, §3, §4

[7] = tested on: LM; assay: as above; conditions: 48 h after transfection, Example 1b mixed with DOPE per Example 2, DOTAP, Lipofectamine per manufacturer
Procedure: as §1, §2, §3, §4

[8] = tested on: 3T3; assay: Transfection with β-galactosidase plasmid, increasing DNA doses (Table 3); conditions: mixture with DOPE, 48 h after transfection
Procedure: as §1, §2
(§5) The effect of DNA dose on the transfection efficiency of various cell lines using the compound obtained in Example 1b formulated according to the example 2 is shown in Table 3.
(§6) |Transfection of various cell lines with a mixture of the | compound of Example lb and DOPE using increasing DNA doses. Cells
(§7) were transfected with a β-galactosidase encoding plasmid formulated […]
(§8) described earlier in this Example. β-galactosidase activity was […]
(§9) 48 h after transfection. Results are expressed as μ Units per well, […]

[9] = tested on: COS-1; assay: as above; conditions: mixture with DOPE, 48 h after transfection
Procedure: as §1, §2, §5, §6, §7, §8, §9

[10] = tested on: CV-1; assay: as above; conditions: mixture with DOPE, 48 h after transfection
Procedure: as §1, §2, §5, §6, §7, §8, §9

[11] = tested on: HepG2; assay: as above; conditions: mixture with DOPE, 48 h after transfection
Procedure: as §1, §2, §5, §6, §7, §8, §9

[12] = tested on: various cell lines; assay: Toxicity on cells at high doses of DNA and compound (Table 3 experiment); conditions: formulated according to Example 2
Procedure: a) 1.1 mg of the compound obtained in Example 1b) were solubilized in trifluoroethanol and mixed with 1.1 mg of dioleoylphosphatidyl-ethanolamine (DOPE) in chloroform. The mixture was dried in vacuo and the remaining film rehydrated with 1 ml of 30 mM Tris Cl buffer pH 8.5.
as §2, §5

[13] = tested on: 293 EBNA cells; assay: Transfection of 293 EBNA cells with compound of Example 1b, polyethylenimine or a mixture thereof (Table 5); conditions: 6 cm dishes, 1 μg DNA per well, 48 h
Procedure: a) 1.0 mg of the compound obtained in Example 1b) was dissolved in trifluoroethanol and dried in vacuo. The film was then rehydrated with 1 ml of 10 mM Tris maleate buffer pH 6. b) 10 μl of a plasmid DNA solution (1 mg/ml) were diluted with 200 μl of pure, sterile water. 39 μl of the product obtained in paragraph a) and 14 μl of an aqueous polyethylenimine solution (0.45 mg/ml) were added. The mixture was adjusted with water to 300 μl, gently mixed and then added to 292 EBNA cells. […]
c) 10 μl of a plasmid DNA solution (1 mg/ml) were diluted with 200 μl of pure, sterile water. 52 μl of the product obtained in paragraph a) were added and adjusted with water to 300 μl. The mixture was gently mixed and then added to 292 EBNA cells. […]
d) 10 μl of a plasmid DNA solution (1 mg/ml) were diluted with 200 μl of pure, sterile water. 56 μl of an aqueous polyethylenimine solution (0.45 mg/ml) were added and adjusted with water to 300 μl. The mixture was gently mixed and then added to 292 EBNA cells.
Transfection of 293 EBNA cells with the compound of Example
| 1b, polyethylenimine or a mixture thereof. Cells grown in 6 cm dishes | were transfected with a luciferase encoding plasmid (1 μg DNA per […]
formulated as described earlier in this Example. Luciferase activity […]
measured 48 h later. Results are expressed as relative light units per

Compound: CCCCCCCC/C=C\CCCCCCCC(=O)OCC(COC(=O)CCCCCCC/C=C\CCCCCCCC)NC(=O)C(CCCNCCCN)NCCCN (stereo not drawn) [DOSPER]
- Luciferase activity [1]: 0 light units per mg of cell pro

Compound: CCCCCCCC/C=C\CCCCCCCC(=O)OCC(C[N+](C)(C)C)OC(=O)CCCCCCC/C=C\CCCCCCCC (stereo not drawn) [DOTAP, reference compound]
- Luciferase activity [2]: 706718 μ Units per well
- Luciferase activity [3]: 156947 μ Units per well
- Luciferase activity [4]: 814133 μ Units per well
- Luciferase activity [5]: 5409 μ Units per well
- Luciferase activity [6]: 594518 μ Units per well
- Luciferase activity [7]: 68614 μ Units per well
- Luciferase activity [1]: 0 light units per mg of cell pro

Compound: compound of formula IIA wherein R^1 and R^2 are oleoyl and R^3 is the residue --(CH2)--CH(NH2)--CO-Ile-Gly-Ala-Val-Leu-Lys-Val-Leu-Thr-Thr-Gly-Leu-Pro-Ala-Leu-Ile-Ser-Trp-Ile-Lys-Arg-Lys-Arg-Gln-Gln-NH2 [Example 1b]
- Luciferase activity [2]: 2343658 μ Units per well
- Luciferase activity [3]: 563827 μ Units per well
- Luciferase activity [4]: 1825019 μ Units per well
- Luciferase activity [5]: 33497 μ Units per well
- Luciferase activity [6]: 1712739 μ Units per well
- Luciferase activity [7]: 31685 μ Units per well
- Galactosidase activity ([8]; 0.2 μg DNA): 318 μ Units per well
- Galactosidase activity ([8]; 0.5 μg DNA): 451 μ Units per well
- Galactosidase activity ([8]; 1 μg DNA): 1032 μ Units per well
- Galactosidase activity ([8]; 2 μg DNA): 1301 μ Units per well
- Galactosidase activity ([9]; 0.2 μg DNA): 16325 μ Units per well
- Galactosidase activity ([9]; 0.5 μg DNA): 20545 μ Units per well
- Galactosidase activity ([9]; 1 μg DNA): 16005 μ Units per well
- Galactosidase activity ([9]; 2 μg DNA): 15740 μ Units per well
- Galactosidase activity ([10]; 0.2 μg DNA): 2700 μ Units per well
- Galactosidase activity ([10]; 0.5 μg DNA): 4440 μ Units per well
- Galactosidase activity ([10]; 1 μg DNA): 9775 μ Units per well
- Galactosidase activity ([10]; 2 μg DNA): 20434 μ Units per well
- Galactosidase activity ([11]; 0.2 μg DNA): 2533 μ Units per well
- Galactosidase activity ([11]; 0.5 μg DNA): 7944 μ Units per well
- Galactosidase activity ([11]; 1 μg DNA): 8988 μ Units per well
- Galactosidase activity ([11]; 2 μg DNA): 13816 μ Units per well
- Toxicity on cells [12]: without any obvious toxicity
- Ability to transfect the suspension cell-line WEHI 231.7 ([1]; compared with DOTAP and DOSPER, same transfection conditions): able to transfect the suspension cell-line WEHI 231.7, albeit at a low level
- Luciferase activity [13]: 3.9 × 10^5 relative light units per dish
